From PMC3087862 (Nature structural & molecular biology, 2011)

B1: human Hsp90α two-domain construct MC (293-732) (domain or fragment)
chain: not shown
B2: human Hsp90α full-length protein without part of the N-M linker (Hsp90Δ; 1-732, 241-268 deleted) (natural protein)
chain: not shown

Target: the molecule itself
Assay: SEC

Protein	stoichiometry N
B1	2
B2	2
